{
  "source": "paper PMC10618235",
  "key": {"[1]": {"target": "FBXL6 (F-Box and Leucine Rich Repeat Protein 6) (UniProt Q8N531)", "assay": "co-IP with anti-Flag IgG, blot", "settings": "reference: wild-type TKT; sites T287"}},
  "note": "Like-named read-outs stand apart in the source and are kept apart here.",
  "data": [
    {"substance": "TKT (transketolase) (from UniProt P29401) TKT T287A", "values": [
      {"measurement": "binding against the reference", "setting": "[1]", "value": "lost"}
    ]},
    {"substance": "TKT (transketolase): K16A", "values": [
      {"measurement": "enzymatic_activity", "setting": "ubiquitination at K16", "value": "abolishes"},
      {"measurement": "localisation_or_trafficking", "setting": "ubiquitination at K16", "value": "changes"},
      {"measurement": "other", "setting": "ubiquitination at K16", "value": "decreases"}
    ]},
    {"substance": "TKT (transketolase): K319A", "values": [
      {"measurement": "enzymatic_activity", "setting": "ubiquitination at K319", "value": "abolishes"},
      {"measurement": "localisation_or_trafficking", "setting": "ubiquitination at K319", "value": "changes"},
      {"measurement": "other", "setting": "ubiquitination at K319", "value": "decreases"}
    ]},
    {"substance": "TKT (transketolase): T287A", "values": [
      {"measurement": "enzymatic_activity", "setting": "phosphorylation at T287", "value": "decreases"},
      {"measurement": "localisation_or_trafficking", "setting": "phosphorylation at T287", "value": "changes"},
      {"measurement": "other", "setting": "phosphorylation at T287", "value": "decreases"}
    ]},
    {"substance": "TKT (transketolase): VRK2 inhibition (IC261, 5 μM) or siVRK2", "values": [
      {"measurement": "other", "setting": "phosphorylation at T287", "value": "decreases"}
    ]}
  ]
}
